Test results from article PMC9482650, “Quantitative fragmentomics allow affinity mapping of interactomes” (Nature Communications, 2022).

Columns and labels:
Assay in all cases: holdup assay
Set-up in all cases: key: below the threshold = too weak to quantify, mostly under pKd 3.1 to 4
[1] = biological target: LNX1_1, Q8TBB1
[2] = biological target: GRID2IP_2, A4D2P6
[3] = biological target: IL16_1, Q14005
[4] = biological target: AHNAK1, Q09666
[5] = biological target: LIMK2, P53671
[6] = biological target: FRMPD3, Q5JV73
[7] = biological target: T1, APBA2_1, Q99767
T1 sequence (Q99767 563-664, limits assumed, looked up): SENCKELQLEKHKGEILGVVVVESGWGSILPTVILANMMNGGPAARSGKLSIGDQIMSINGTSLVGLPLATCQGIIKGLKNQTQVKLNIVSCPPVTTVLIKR

[8] = biological target: T2, DFNB31_2, Q9P202
T2 sequence (Q9P202 274-371, limits assumed, looked up): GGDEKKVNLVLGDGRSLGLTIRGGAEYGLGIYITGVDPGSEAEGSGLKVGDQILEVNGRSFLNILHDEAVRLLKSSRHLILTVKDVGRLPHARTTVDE

[9] = biological target: NOS1, P29475
[10] = biological target: T3, HTRA3, P83110
T3 sequence (P83110 354-453, limits assumed, looked up): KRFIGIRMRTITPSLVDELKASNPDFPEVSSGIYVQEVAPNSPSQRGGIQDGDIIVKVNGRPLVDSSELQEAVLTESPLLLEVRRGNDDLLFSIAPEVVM

[11] = biological target: MAGI2_5, Q86UL8
[12] = biological target: T4, RHPN1, Q8TCX5
T4 sequence (Q8TCX5 508-602, limits assumed, looked up): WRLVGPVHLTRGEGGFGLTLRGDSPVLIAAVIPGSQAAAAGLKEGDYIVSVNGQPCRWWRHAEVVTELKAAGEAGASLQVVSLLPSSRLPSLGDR

[13] = biological target: MAST1, Q9Y2H9
[14] = biological target: T5, MPDZ_5, O75970
T5 sequence (O75970 695-796, limits assumed, looked up): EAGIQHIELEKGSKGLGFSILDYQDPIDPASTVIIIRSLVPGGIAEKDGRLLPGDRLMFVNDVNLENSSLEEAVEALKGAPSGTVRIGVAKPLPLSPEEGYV

[15] = biological target: GRIP2_7, Q9C0E4
[16] = biological target: GRIP2_6, Q9C0E4
[17] = biological target: T6, DVL3, Q92997
T6 sequence (Q92997 244-331, limits assumed, looked up): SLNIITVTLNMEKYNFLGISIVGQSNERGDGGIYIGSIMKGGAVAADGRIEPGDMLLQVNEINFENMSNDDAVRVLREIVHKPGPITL

[18] = biological target: T7, APBA1_1, Q02410
T7 sequence (Q02410 651-752, limits assumed, looked up): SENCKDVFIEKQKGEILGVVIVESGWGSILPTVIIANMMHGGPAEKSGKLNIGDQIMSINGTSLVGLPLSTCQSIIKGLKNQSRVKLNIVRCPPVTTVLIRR

[19] = biological target: T8, APBA2_2, Q99767
T8 sequence (Q99767 654-744, limits assumed, looked up): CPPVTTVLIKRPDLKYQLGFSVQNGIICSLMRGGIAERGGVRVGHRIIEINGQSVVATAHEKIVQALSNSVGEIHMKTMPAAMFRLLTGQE

[20] = biological target: GORASP1, Q9BQQ3
[21] = biological target: NHERF2_2, Q15599
[22] = biological target: MAGI2_3, Q86UL8
[23] = biological target: GORASP2, Q9H8Y8
[24] = biological target: DLG1_3, Q12959
[25] = biological target: T9, DFNB31_1, Q9P202
T9 sequence (Q9P202 135-233, limits assumed, looked up): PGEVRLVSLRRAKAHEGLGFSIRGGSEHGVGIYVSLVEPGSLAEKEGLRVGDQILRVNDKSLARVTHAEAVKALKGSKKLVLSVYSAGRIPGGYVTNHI

[26] = biological target: DLG2_3, Q15700
[27] = biological target: T10, SIPA1L2, Q9P2F8
T10 sequence (Q9P2F8 945-1036, limits assumed, looked up): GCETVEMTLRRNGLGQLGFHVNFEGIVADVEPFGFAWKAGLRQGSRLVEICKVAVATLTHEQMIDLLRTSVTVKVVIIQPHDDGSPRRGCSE

[28] = plain residues with an end cap or a label only (N-terminal biotin on a linker: ttds)
[29] = plain residues with an end cap or a label only (N-terminal biotin on a linker: gsgsgs; C-terminal amide)

Measured: pKd

LIMK2, P53671, sequence (P53671 143-248): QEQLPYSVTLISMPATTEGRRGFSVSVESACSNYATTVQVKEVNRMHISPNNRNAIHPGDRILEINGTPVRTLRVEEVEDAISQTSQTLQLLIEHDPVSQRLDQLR
MAGI2_5, Q86UL8, sequence (Q86UL8 915-1017): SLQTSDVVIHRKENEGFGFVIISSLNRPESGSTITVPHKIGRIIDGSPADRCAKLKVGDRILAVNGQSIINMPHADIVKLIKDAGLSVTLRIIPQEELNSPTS
AHNAK1, Q09666, sequence (Q09666 4-100): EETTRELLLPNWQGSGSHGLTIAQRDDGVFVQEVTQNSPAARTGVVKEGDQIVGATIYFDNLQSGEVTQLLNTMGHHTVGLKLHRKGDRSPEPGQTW
DLG1_3, Q12959, sequence (Q12959 457-571): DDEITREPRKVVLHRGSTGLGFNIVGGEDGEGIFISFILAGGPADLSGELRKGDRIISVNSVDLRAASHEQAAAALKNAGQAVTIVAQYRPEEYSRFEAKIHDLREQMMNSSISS
GRIP2_7, Q9C0E4, sequence (Q9C0E4 934-1023): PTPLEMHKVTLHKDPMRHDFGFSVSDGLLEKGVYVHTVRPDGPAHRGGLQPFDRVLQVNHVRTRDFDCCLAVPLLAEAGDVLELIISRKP
MAST1, Q9Y2H9, sequence (Q9Y2H9 962-1065): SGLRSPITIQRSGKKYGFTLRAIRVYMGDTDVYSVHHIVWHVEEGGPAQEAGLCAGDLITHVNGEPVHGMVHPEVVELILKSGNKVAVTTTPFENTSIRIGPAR
GRID2IP_2, A4D2P6, sequence (A4D2P6 272-370): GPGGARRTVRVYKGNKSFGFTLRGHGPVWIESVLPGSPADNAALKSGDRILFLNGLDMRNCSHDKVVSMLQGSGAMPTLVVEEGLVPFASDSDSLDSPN
NOS1, P29475, sequence (P29475 9-101): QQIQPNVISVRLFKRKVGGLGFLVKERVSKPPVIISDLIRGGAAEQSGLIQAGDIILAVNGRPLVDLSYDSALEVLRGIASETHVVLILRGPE
FRMPD3, Q5JV73, sequence (Q5JV73 12-100): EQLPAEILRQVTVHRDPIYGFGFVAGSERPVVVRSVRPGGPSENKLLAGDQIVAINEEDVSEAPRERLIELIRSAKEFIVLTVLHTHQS
MAGI2_3, Q86UL8, sequence (Q86UL8 600-682): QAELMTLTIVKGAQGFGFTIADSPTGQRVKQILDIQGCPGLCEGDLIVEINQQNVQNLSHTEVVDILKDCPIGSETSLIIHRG
LNX1_1, Q8TBB1, sequence (Q8TBB1 261-371): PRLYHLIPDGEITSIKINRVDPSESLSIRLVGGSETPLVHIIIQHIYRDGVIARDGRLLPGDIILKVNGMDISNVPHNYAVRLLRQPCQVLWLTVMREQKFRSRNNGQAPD
GRIP2_6, Q9C0E4, sequence (Q9C0E4 648-740): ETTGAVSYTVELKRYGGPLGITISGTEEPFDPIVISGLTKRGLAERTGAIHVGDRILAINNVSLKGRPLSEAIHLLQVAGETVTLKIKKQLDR
IL16_1, Q14005, sequence (Q14005 210-306): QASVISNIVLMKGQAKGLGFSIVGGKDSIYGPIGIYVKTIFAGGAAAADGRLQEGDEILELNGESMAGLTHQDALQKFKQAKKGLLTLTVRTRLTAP
GORASP1, Q9BQQ3, sequence (Q9BQQ3 1-208): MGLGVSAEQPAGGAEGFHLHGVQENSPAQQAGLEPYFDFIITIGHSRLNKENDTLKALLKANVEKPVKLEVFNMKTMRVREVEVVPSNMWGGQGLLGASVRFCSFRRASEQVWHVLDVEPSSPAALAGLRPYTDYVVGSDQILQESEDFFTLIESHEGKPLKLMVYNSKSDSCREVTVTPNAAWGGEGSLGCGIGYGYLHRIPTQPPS
NHERF2_2, Q15599, sequence (Q15599 142-238): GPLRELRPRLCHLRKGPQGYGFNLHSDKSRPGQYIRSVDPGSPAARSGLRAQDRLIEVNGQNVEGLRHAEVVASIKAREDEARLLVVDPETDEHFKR

B1: HPV16-E6, P03126 (peptide)
chain: SSRTRRETQL
4.08: [9]; [28]
3.51: [1]; [28]
below the threshold: [3]; [28] | [4]; [28] | [5]; [28] | [6]; [28] | [7]; [28] | [8]; [28] | [10]; [28] | [15]; [28] | [16]; [28] | [17]; [28] | [18]; [28] | [19]; [28] | [27]; [28]
3.67: [14]; [28] | [22]; [28]
3.53: [25]; [28]
4.02: [23]; [28]
3.93: [11]; [28]
3.86: [2]; [28]
4.7: [24]; [28]
3.52: [20]; [28]
4.23: [12]; [28] | [13]; [28]
4.19: [21]; [28]
5.1: [26]; [28]

B2: AXIN1_int, O15169 (peptide)
chain: TLSLTDSSVDGIPPYR
below the threshold: [1]; [29] | [2]; [29] | [4]; [29] | [5]; [29] | [6]; [29] | [7]; [29] | [8]; [29] | [9]; [29] | [10]; [29] | [11]; [29] | [12]; [29] | [14]; [29] | [15]; [29] | [16]; [29] | [17]; [29] | [18]; [29] | [19]; [29] | [20]; [29] | [21]; [29] | [22]; [29] | [23]; [29] | [24]; [29] | [25]; [29] | [27]; [29]
3.67: [26]; [29]
3.68: [13]; [29]
3.48: [3]; [29]

B3: SLC1A5, Q15758 (peptide)
chain: TVASEKESVM
3.7: [2]; [28]
below the threshold: [1]; [28] | [3]; [28] | [4]; [28] | [5]; [28] | [6]; [28] | [7]; [28] | [8]; [28] | [9]; [28] | [10]; [28] | [11]; [28] | [14]; [28] | [15]; [28] | [16]; [28] | [17]; [28] | [18]; [28] | [19]; [28] | [20]; [28] | [22]; [28] | [23]; [28] | [26]; [28] | [27]; [28]
3.65: [25]; [28]
3.55: [24]; [28]
4.2: [13]; [28]
3.67: [12]; [28]
3.51: [21]; [28]
